Results on 3 molecules are retold here after patent US20160032013A1 (Genentech, published 2016).

For test [1], the target named is T1, Human RON on cells (3T3-hRON, A2780-hRON, BxPC3, human primary colon cells) (human, UniProt Q04912 25-1400).
T1 construct: That is its entry for human RON
Nature of the test: radioligand binding to 3T3-hRON cells for 2 h at room temperature. As for the experimental part:
(§1) MSP proteins were iodinated using the Iodogen method (Thermo Scientific) and purified from free Na¹²⁵I by gel filtration using a NAP-5 column. Specific activities ranged from 12.26 to 18.65 μCi/μg. Competition reaction mixtures were made of a fixed concentration of iodinated MSP and unlabeled MSP serially diluted 1- to 2-fold ten times starting at 5 μM in a volume of 50 μL. 3T3-hRon cells were washed with binding buffer, consisting of DMEM with 1% bovine serum albumin, 325 nM human IgG, 50 mM HEPES (pH 7.2) and 0.1% sodium azide. 150,000 cells in 0.2 ml binding buffer were added to competition reaction mixtures. Competition reactions with cells were incubated for 2 h at room temperature and transferred to a Multiscreen filter plate (Millipore) and washed 4 times with binding buffer. Filters were counted on a Wallac Wizard 1470 gamma counter (PerkinElmer Life and Analytical Sciences). Binding affinities were determined using NewLigand software (Genentech, Inc) (Munson et al., 1980, Anal Biochem 107:220-39).

Test [2] concerns the target T1, Human RON on cells (3T3-hRON, …). As to the kind of experiment: radioligand binding to 3T3-hRON cells for 4 h on ice.
Test [3] concerns the target T2, Human RON-hIgG1 Fc (RON Sema/PSI/IPT1 fused to human IgG1 Fc) (human).
T2 construct: also called RON-Fc; hRON-Fc
Nature of the test: plate binding assay, plate-bound RON-Fc, soluble His-tagged MSP, anti-His-HRP, 4-parameter fit. From the text: (§2) Means of three replicates per group are shown. […] C presents results of SPR analysis of MSP proteins binding to immobilized RON Sema/PSI, showing relative response in response units. Data are representative of three independent experiments. […] Competition binding to 3T3-hRON cells (large graphs) used to generate affinities and Scatchard plots (inset graphs) are shown. Mean+/−standard deviation (SD) of three independent experiments is shown. E is a homology model of the structure of RON Sema/PSI (PDB code 4FWW) shown at the bottom, which binds to MSP β (PDB code 2ASU) shown on top. RON and MSP β were globally aligned to the Met/HGF β complex (PDB code 1SHY). Predicted locations of the MSP β contact residues within 4 Å of RON are marked by asterisks. […]
(§3) MaxiSorp plates (Nalge Nunc International) were coated overnight at 4° C. with 2 μg/ml of rabbit anti-human IgG Fc specific antibody (Jackson ImmunoResearch Laboratories) in 50 mM sodium carbonate buffer, pH 9.6. […] Bound MSP was detected using anti-His-HRP (Qiagen Inc.) followed by addition of TMB/H₂O₂ substrate (Thermo Scientific). The reaction was stopped with 1M H₃PO₄ and the absorbance at 450 nm (A₄₅₀) was measured on a SpectraMax Plus³⁸⁴ plate reader (Molecular Devices, LLC). The half maximal effective concentration of MSP (EC₅₀) was determined by a 4-parameter fit using Kaleidagraph (Synergy Software).

Test [4] concerns the target T1, Human RON on cells (3T3-hRON, …). As to the kind of experiment: radioligand competition binding on 3T3-hRON cells: fixed 125I-MSP 689R as competitor, unlabeled MSP 689R titrated [Continued) D]. How it is done:
as §1
(Loss of bound radioactivity is the signal in a displacement assay; it reports binding, not function.)

Test [5] deals with T2, Human RON-hIgG1 Fc (RON Sema/PSI/IPT1 …). Nature of the test: SPR capturing RON-Fc at 25 C. How it is done:
To determine MSP protein binding kinetics to hRON-Fc or mRON-Fc fusion proteins, between 50 and 100 response units (RU) were captured on each of three immobilized anti-human Fc surfaces. Various concentrations (50-0.78 nM, 2-fold dilution series) of MSP, MSP β, MSP α or scMSP were injected in HBS-P buffer (10 mM HEPES, pH 7.5, 150 mM NaCl, 0.005% P20) at 25° C. with a flow rate of 30 μL/min and dissociation monitored for 4 min. Between measurements, the biosensor surfaces were regenerated with a 2 min pulse of 10 mM glycine-HCl pH 1.5.

Test [6] shares this target. Nature of the test: BLI using RON-Fc at 30 C. How it is done: Real-time kinetic measurements of MSP binding to RON were conducted using an Octet RED384 (ForteBio, Inc). Samples or buffer were dispensed into 96-well microtiter plates (Greiner Bio-One North America, Inc.) at a volume of 200 μl per well. Anti-human IgG Fc Biosensors were used for the experiments. Each experiment consisted of three steps: incubation with ForteBio Kinetic buffer diluted 1:10 in PBS assay buffer to establish an equilibrium for 120 s (baseline), incubation with 10 μg/ml RON-Fc in assay buffer to coat the biosensor with binding target for 900 s (load), incubation with MSP, MSP β or scMSP in assay buffer containing various concentrations (75-4.7 nM, 2-fold dilution series) for 400 s (association), and incubation with assay buffer to measure the off-rate of MSP for 400 s (dissociation). Operating temperature was maintained at 30° C. Data were generated automatically by the Octet Data Acquisition 7.0 software. Each data set was fitted globally to a simple one-to-one binding model using ForteBio Analysis Software 7.0 to determine the kinetic parameters kₐ and kd. The equilibrium dissociation constants (KD) were then calculated as a ratio (koff/kₒₙ) of these rate constants.

Test [7] concerns the target T1, Human RON on cells (3T3-hRON, …). As to the kind of experiment: radioligand competition binding on 3T3-hRON cells: fixed 125I-MSP 689C as competitor, unlabeled MSP 689C titrated [Continued) D]. How it is done: as §1
Test [8] concerns the target T3, Recombinant human RON Sema/PSI (residues E25-P568) with C-terminal His-tag (human, UniProt Q04912 25-568).
T3 construct: Made in Trichoplusia ni insect cells
As to the kind of experiment: SPR using immobilized RON Sema/PSI at 25 C.

In test [9] the target is T2, Human RON-hIgG1 Fc (RON Sema/PSI/IPT1 …). As to the kind of experiment: plate binding assay, plate-bound RON-Fc, soluble His-tagged MSP β, anti-His-HRP, 4-parameter fit.
From the text: as §2, §3

T2 sequence (chain, as listed by the source limits assumed): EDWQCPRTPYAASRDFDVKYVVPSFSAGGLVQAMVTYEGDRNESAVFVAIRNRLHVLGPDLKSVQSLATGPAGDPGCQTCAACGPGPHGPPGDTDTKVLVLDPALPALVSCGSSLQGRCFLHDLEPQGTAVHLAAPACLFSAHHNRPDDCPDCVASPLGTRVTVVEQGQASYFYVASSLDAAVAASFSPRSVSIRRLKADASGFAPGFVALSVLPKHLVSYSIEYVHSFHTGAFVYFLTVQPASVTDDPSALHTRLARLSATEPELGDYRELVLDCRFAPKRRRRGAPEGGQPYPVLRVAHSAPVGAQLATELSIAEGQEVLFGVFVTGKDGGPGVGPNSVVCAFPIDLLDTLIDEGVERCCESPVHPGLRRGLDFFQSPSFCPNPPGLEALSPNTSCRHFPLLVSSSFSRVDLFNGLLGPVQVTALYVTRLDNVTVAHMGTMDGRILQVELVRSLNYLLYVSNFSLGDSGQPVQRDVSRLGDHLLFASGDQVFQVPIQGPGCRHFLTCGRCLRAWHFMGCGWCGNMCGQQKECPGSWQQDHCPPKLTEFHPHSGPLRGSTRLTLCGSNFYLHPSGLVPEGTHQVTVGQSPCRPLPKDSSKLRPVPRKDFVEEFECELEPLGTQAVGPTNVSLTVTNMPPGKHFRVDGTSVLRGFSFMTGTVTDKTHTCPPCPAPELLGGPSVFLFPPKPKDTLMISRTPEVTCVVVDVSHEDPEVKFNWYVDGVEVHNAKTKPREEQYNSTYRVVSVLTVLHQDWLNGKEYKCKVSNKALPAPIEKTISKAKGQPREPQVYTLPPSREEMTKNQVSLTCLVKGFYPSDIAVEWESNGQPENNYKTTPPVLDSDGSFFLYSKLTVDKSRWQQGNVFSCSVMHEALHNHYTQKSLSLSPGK

B1: Full length human MSP 689R (wild type + C672A + His tag), active two-chain form (ligand)
chain 1: QRSPLNDFQVLRGTELQHLLHAVVPGPWQEDVADAEECAGRCGPLMDCRAFHYNVSSHGCQLLPWTQHSPHTRLRRSGRCDLFQKKDYVRTCIMNNGVGYRGTMATTVGGLPCQAWSHKFPNDHKYTPTLRNGLEENFCRNPDGDPGGPWCYTTDPAVRFQSCGIKSCREAACVWCNGEEYRGAVDRTESGRECQRWDLQHPHQHPFEPGKFLDQGLDDNYCRNPDGSERPWCYTTDPQIEREFCDLPRCGSEAQPRQEATTVSCFRGKGEGYRGTANTTTAGVPCQRWDAQIPHQHRFTPEKYACKDLRENFCRNPDGSEAPWCFTLRPGMRAAFCYQIRRCTDDVRPQDCYHGAGEQYRGTVSKTRKGVQCQRWSAETPHKPQFTFTSEPHAQLEENFCRNPDGDSHGPWCYTMDPRTPFDYCALRRCADDQPPSILDPPDQVQFEKCGKRVDRLDQRRSKLR
chain 2: VVGGHPGNSPWTVSLRNRQGQHFCGGSLVKEQWILTARQCFSSCHMPLTGYEVWLGTLFQNPQHGEPSLQRVPVAKMVCGPSGSQLVLLKLERSVTLNQRVALICLPPEWYVVPPGTKCEIAGWGETKGTGNDTVLNVALLNVISNQECNIKHRGRVRESEMCTEGLLAPVGACEGDYGGPLACFTHNAWVLEGIIIPNRVCARSRWPAVFTRVSVFVDWIHKVMRLGHHHHHH
notes: Pro-MSP converted with sHepsin into the disulfide-linked alpha/beta heterodimer; Numbering is that of pro-MSP; also called full-length MSP; human full-length MSP
Broadly, the Kd is a measure of binding affinity in units of concentration. As usually defined, the EC50 is the concentration at which the effect is half-maximal. On to B1, for which the Kd was 12.6 nM in test [1] and 23 nM in test [2]. For the same molecule, the EC50 in [3] came to 0.1 nM. Further, in [4], the “IC50 (read off the curve)” value was roughly 10 nM.

B2: Full length human MSP R689C (wild type + C672A + R689C + His tag), active two-chain form (ligand)
chain 1: QRSPLNDFQVLRGTELQHLLHAVVPGPWQEDVADAEECAGRCGPLMDCRAFHYNVSSHGCQLLPWTQHSPHTRLRRSGRCDLFQKKDYVRTCIMNNGVGYRGTMATTVGGLPCQAWSHKFPNDHKYTPTLRNGLEENFCRNPDGDPGGPWCYTTDPAVRFQSCGIKSCREAACVWCNGEEYRGAVDRTESGRECQRWDLQHPHQHPFEPGKFLDQGLDDNYCRNPDGSERPWCYTTDPQIEREFCDLPRCGSEAQPRQEATTVSCFRGKGEGYRGTANTTTAGVPCQRWDAQIPHQHRFTPEKYACKDLRENFCRNPDGSEAPWCFTLRPGMRAAFCYQIRRCTDDVRPQDCYHGAGEQYRGTVSKTRKGVQCQRWSAETPHKPQFTFTSEPHAQLEENFCRNPDGDSHGPWCYTMDPRTPFDYCALRRCADDQPPSILDPPDQVQFEKCGKRVDRLDQRRSKLR
chain 2: VVGGHPGNSPWTVSLRNRQGQHFCGGSLVKEQWILTARQCFSSCHMPLTGYEVWLGTLFQNPQHGEPSLQRVPVAKMVCGPSGSQLVLLKLERSVTLNQRVALICLPPEWYVVPPGTKCEIAGWGETKGTGNDTVLNVALLNVISNQECNIKHRGRVRESEMCTEGLLAPVGACEGDYGGPLACFTHNAWVLEGIIIPNRVCARSCWPAVFTRVSVFVDWIHKVMRLGHHHHHH
Usually koff stands for the first-order rate constant of dissociation. One may read the kon as the rate constant with which the complex forms. With B2, the Kd in test [1] stood at 13 nM; in test [5], 9.6 nM; in test [6], 9.4 nM; in test [8], 9.6 nM; in [2] it was 25.7 nM. Also, the off-rate constant (koff) in [5] was roughly 0.0016 s⁻¹; in test [8] it was 0.0012 s⁻¹. Further, the kon is roughly 170000 M⁻¹ s⁻¹ in test [5] and 116000 M⁻¹ s⁻¹ in test [8]. Besides, the “IC50 (read off the curve)” value in [7] is roughly 10 nM. Further, in [3], the half-maximal effective concentration (EC50) came out at 0.2 nM.

B3: Human MSP β R689C with wild-type C672 (HGF leader + V484-G711 + C588S + C672C + R689C + His tag) (ligand)
chain: VVGGHPGNSPWTVSLRNRQGQHFCGGSLVKEQWILTARQCFSSCHMPLTGYEVWLGTLFQNPQHGEPSLQRVPVAKMVCGPSGSQLVLLKLERSVTLNQRVALISLPPEWYVVPPGTKCEIAGWGETKGTGNDTVLNVALLNVISNQECNIKHRGRVRESEMCTEGLLAPVGACEGDYGGPLACFTHNCWVLEGIIIPNRVCARSCWPAVFTRVSVFVDWIHKVMRLGHHHHHH
With B3, the half-maximal effective concentration (EC50) in [9] stood at 0.1 nM. For the same molecule, in test [5], binding was put at a Kd of 9.7 nM, the koff stood at 0.0079 s⁻¹ and the kon came out at 870000 M⁻¹ s⁻¹.
